Results: the supplement of paper PMC9233669
Fewer inactive variants are shown than the library holds.

Tests used:
[1] = system: biotinyl-Leu-oxazolone; assay: self-aminoacylation, catalytic enhancement (BLO) (fold over background); higher = more active; k-Seq, kA / k0A0; sequences stand for … in GGGAAUGGAUCCACAUCUACGAAUUC…UUCACUGCAGACUUGACGAAGCUG
Procedure, shortened: (§1)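 The uncatalyzed rate is the low-activity peak of a bimodal Gaussian fit, and catalytic enhancement is median kA divided by it. The kA values came from pseudo-first-order fits, with 1000 bootstraps, of per-sequence fraction reacted measured by streptavidin capture, triplicate qPCR and Illumina sequencing. Mutagenized RNA pools with a 21-nt variable region (0.43 μM) were reacted with each biotinyl-aminoacyl-oxazolone at 2–1250 μM in 50 μL HEPES/NaCl/KCl/MgCl2/CaCl2 buffer with 5% acetonitrile, pH 6.9–7.0, for 90 minutes at room temperature.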

[2] = system: biotinyl-Ile-oxazolone; assay: self-aminoacylation, catalytic enhancement (BIO) (fold over background); higher = more active; k-Seq, kA / k0A0; sequences stand for … in GGGAAUGGAUCCACAUCUACGAAUUC…UUCACUGCAGACUUGACGAAGCUG
Procedure, shortened: as §1

[3] = system: biotinyl-Phe-oxazolone; assay: self-aminoacylation, catalytic enhancement (BFO) (fold over background); higher = more active; k-Seq, kA / k0A0; sequences stand for … in GGGAAUGGAUCCACAUCUACGAAUUC…UUCACUGCAGACUUGACGAAGCUG
Procedure, shortened: as §1

[4] = system: biotinyl-Trp-oxazolone; assay: self-aminoacylation, catalytic enhancement (BWO) (fold over background); higher = more active; k-Seq, kA / k0A0; sequences stand for … in GGGAAUGGAUCCACAUCUACGAAUUC…UUCACUGCAGACUUGACGAAGCUG
Procedure, shortened: as §1

[5] = system: biotinyl-Met-oxazolone; assay: self-aminoacylation, catalytic enhancement (BMO) (fold over background); higher = more active; k-Seq, kA / k0A0; sequences stand for … in GGGAAUGGAUCCACAUCUACGAAUUC…UUCACUGCAGACUUGACGAAGCUG
Procedure, shortened: as §1

[6] = system: biotinyl-Val-oxazolone; assay: self-aminoacylation, catalytic enhancement (BVO) (fold over background); higher = more active; k-Seq, kA / k0A0; sequences stand for … in GGGAAUGGAUCCACAUCUACGAAUUC…UUCACUGCAGACUUGACGAAGCUG
Procedure, shortened: as §1

| Sequence | self-aminoacylation [1] | self-aminoacylation [2] | self-aminoacylation [3] | self-aminoacylation [4] | self-aminoacylation [5] | self-aminoacylation [6] |
| --- | --- | --- | --- | --- | --- | --- |
| AUUCACCUAGGUCAUCAGGCG [Fam2.2 aminoacylation ribozyme variant] | 1.54 | 1.26 | 1.02 | 1.87 | 1.47 | 1.32 |
| AUUCACCUAGGUCAUCAGUUG [Fam2.2 aminoacylation ribozyme variant] | 0.942 | 0.954 | 0.935 | 0.698 | 0.88 | 0.939 |
| AUUCACCUAGGUCAUCCGGCG [Fam2.2 aminoacylation ribozyme variant] | 3.69 | 3.31 | 15.3 | 4.29 | 3.55 | 4.01 |
| AUUCACCUAGGUCAUCCGGUG [Fam2.2 aminoacylation ribozyme variant] | 8.38 | 4.67 | 44.9 | 6.3 | 6.35 | 4.69 |
| AUUCACCUAGGUCAUCGAGGG [Fam2.2 aminoacylation ribozyme variant] | 2.89 | 1.58 | 3.09 | 1.1 | 2.19 | 1.43 |
| AUUCACCUAGGUCAUCGCGUG [Fam2.2 aminoacylation ribozyme variant] | 17.4 | 7.1 | 100 | 11.5 | 13 | 7.35 |
| AUUCACCUAGGUCAUCGGCCG [Fam2.2 aminoacylation ribozyme variant] | 4.25 | 3.35 | 16.6 | 5.29 | 4.04 | 3.45 |
| AUUCACCUAGGUCAUCGGCUA [Fam2.2 aminoacylation ribozyme variant] | 2.98 | 2.67 | 11.2 | 2.62 | 2.57 | 2.62 |
| AUUCACCUAGGUCAUCGGCUC [Fam2.2 aminoacylation ribozyme variant] | 2.45 | 2.5 | 5.2 | 2.47 | 2.14 | 2.22 |
| AUUCACCUAGGUCAUCGGGAA [Fam2.2 aminoacylation ribozyme variant] | 9.17 | 4.54 | 26 | 6.07 | 5.51 | 4.14 |
| AUUCACCUAGGUCAUCGUAUG [Fam2.2 aminoacylation ribozyme variant] | 0.553 | 0.593 | 0.528 | 0.207 | 0.503 | 0.737 |
| AUUCACCUAGGUCAUCGUGUG [Fam2.2 aminoacylation ribozyme variant] | 1.07 | 0.867 | 2.56 | 0.654 | 0.951 | 0.932 |
| AUUCACCUAGGUCAUCUGCUG [Fam2.2 aminoacylation ribozyme variant] | 0.964 | 0.819 | 2.81 | 0.391 | 0.724 | 0.81 |
| AUUCACCUAGGUCAUCUGUUG [Fam2.2 aminoacylation ribozyme variant] | 0.618 | 0.795 | 0.429 | 0.373 | 0.564 | 0.693 |
| AUUCACCUAGGUCAUGGGGUA [Fam2.2 aminoacylation ribozyme variant] | 1.88 | 1.96 | 1 | 1.56 | 2.13 | 1.83 |
| AUUCACCUAGGUCAUUGGGCG [Fam2.2 aminoacylation ribozyme variant] | 3.36 | 2.58 | 10.6 | 3.16 | 2.49 | 2.66 |
| AUUCACCUAGGUCAUUGGGUC [Fam2.2 aminoacylation ribozyme variant] | 0.89 | 0.922 | 1.09 | 0.734 | 0.808 | 0.867 |
| AUUCACCUAGGUCAUUGGGUU [Fam2.2 aminoacylation ribozyme variant] | 1.15 | 1.23 | 5.73 | 1.52 | 1.34 | 1.19 |
| AUUCACCUAGGUCAUUGUGUG [Fam2.2 aminoacylation ribozyme variant] | 1.03 | 0.871 | 0.805 | 0.463 | 0.898 | 0.835 |
| AUUCACCUAGGUCCUCGGGUC [Fam2.2 aminoacylation ribozyme variant] | 1.16 | 1.21 | 4.38 | 0.77 | 1.51 | 1.34 |
| AUUCACCUAGGUCCUCUGGUG [Fam2.2 aminoacylation ribozyme variant] | 5.9 | 2.57 | 31.1 | 4.56 | 4.3 | 2.58 |
| AUUCACCUAGGUCCUGGGGUG [Fam2.2 aminoacylation ribozyme variant] | 9.12 | 4.6 | 57.2 | 7.11 | 7.35 | 4.05 |
| AUUCACCUAGGUCGUCCGGUG [Fam2.2 aminoacylation ribozyme variant] | 3.89 | 2.52 | 14.4 | 2.39 | 3.34 | 2.35 |
| AUUCACCUAGGUCGUCGGGUG [Fam2.2 aminoacylation ribozyme variant] | 2.09 | 1.61 | 9.32 | 1.66 | 1.84 | 1.77 |
| AUUCACCUAGGUCUACGGGUG [Fam2.2 aminoacylation ribozyme variant] | 4.92 | 3.16 | 27.6 | 4.07 | 4.62 | 3.11 |
